{"source": "the DeepSol protein solubility set"}
{"assay": "soluble on expression in E. coli; label from the status in PepcDB or PDB records"}
{"sequence": "MGSDKIHHHHHHMAGGVSLKYILEQLAEERLGFLVNGHAMRQESQVGDLKVMERKKKLLEKRKVDIIKAKAKAVINHVRVEDDGTTCLSYTIHYEYVCKEQDDSLYIEEHIEERMAFLYDHILISDQEIAKKPAGFHEGTSIIDYSEAEEEREAFGRAFQYDRLGAVQYAEKFWNKRNPAYKNFSDNCTNFISQCLHAGGAPMRGHPNRGSGWWMKQSSWSYSWTVAHSMKMYLSNSKAGLRAVRVKSAEELMPGDVICYDFEGDGRFNHTTIVVAKDKGNMPLVNAQTYDSRMRYWSYEDSTAYTPSIRYAFFHIVDDTTKE", "soluble on expression in E. coli": "not soluble"}
{"sequence": "MGSDKIHHHHHHMAHIFVYGTLKRGQPNHKVMLDHSHGLAAFRGRGCTVESFPLVIAGEHNIPWLLYLPGKGHCVTGEIYEVDEQMLRFLDDFEDCPSMYQRTALQVQVLEWEGDGDPGDSVQCFVYTTATYAPEWLFLPYHESYDSEGPHGLRYNPRENR", "soluble on expression in E. coli": "soluble"}
{"sequence": "MGSDKIHHHHHHMAIGTLEATTLIRGRAMTTVLPSPELIASFVDIVGPGNALTAPADTAPYLVESRGLYRGTTPLVLRPGSVEEVSLVMRLASQTRTAVVPQGGNTGHVAGQIPREGKADVVLSLERLNRIRDIDPVGNVIVADAGCILADIQKAADDVDRLFPLSLGSEGSARIGGNLSTNAGGTAVLAYGNMRQLCLGLEVVLPTGEIWDGLRRLRKDNTGYDLRDLFIGAEGTLGVITGAVLKLFPKPRGHQVAFAGLRSVEDALTLFDRATSVCGPALTGFELMPRLGIEFTTRHIAGVRDPMETTHPWYALIDISTSDTAESAERMVQDLLEAVIADGLVENAVIAQNEAQRRALWHMRESMSPAQKPEGGSIKHDVSVPVSSIPAFMTEADALVSKAIPGARICAFGHMGDGNIHYNISQPVGADKQSFLDRWREINAIVHAVVLKHDGSISAEHGIGQLKRDELAAIRSPIEIELMRRIKHAFDPAGIMNPDKVLREDRGE", "soluble on expression in E. coli": "not soluble"}
{"sequence": "MGSDKIHHHHHHMAKKKVIFECMACGYQSPKWMGKCPNCGAWNQMEEIVEKAANPKHGVKTKELAGKVQKLNSIKHETTPRVLTDSAEFNRVLGGGIVSGSLVLIGGDPGIGKSTLLLQICASLSQKKKVLYITGEESLSQTKLRAERLDEDSSELQVLAETDLEVIYQTVKEEQPDLLVVDSIQTIYHPEISSAPGSVSQVRESTQSLMNIAKQMNIATFIVGHVTKEGQIAGPRLLEHMVDTVLYFEGDEHHAYRILRAVKNRFGSTNEMGIFEMKQSGLKGVNNPSEMFLEERSTNVPGSTIVATMEGTRPLLIEVQALVTPTTFNNPRRMATGIDHNRLSLLMAVLEKKENYLLQQQDAYIKVAGGVKLTEPAVDLSVIVATASSFKDKAVDGLDCYIGEVGLTGEVRRVSRIEQRVQEAAKLGFKRVIIPKNNIGGWTYPEGIQVIGVTTVHEALSFALHS", "soluble on expression in E. coli": "not soluble"}
{"sequence": "MGSDKIHHHHHHMAKQQFNKLIWLVDTIFRNAPVTFAEINRRWRAGDDNRSDIPLRTFHNHRQAIEEIFDINIECDKRNNTYYIADAEGMLGDKLKMWLLNSFSLNNVLQENVDMKNRIVFEEVPSGVQFMDLVIDAMRSGRVLAMEYQAYNWEHSKDVLLEPYFVKLFRHRWYLIGINREYKAFRSYSLDRIKRIALSEETFNFPRKFTPQDHFRDSFGIIRDENLLPQHTVLRTTISQAPYLRNLPLHSSQKEIAVTESYVDFELYISHTYDFIQELLSKGAAVEVLKPQSLRDKIKAEIQNMQTLYHL", "soluble on expression in E. coli": "not soluble"}
{"sequence": "MGSDKIHHHHHHMAKRKVPPEFVVERDDYKCIRCLACVRVCSYGANFYDENANRVYTENTKCVGCHFCEAICPTEAITVRKNDFDIRPLAHWTPEHLIGIMKQAETGGVLLTSMGNDRPYFSYFDRIVLNASQVTNPSIDPLREPMEIRTYIGRKEEKLEIEEDEDGTVKLKTEIAPQLKLEVPVMFTAMSYGSISLNAILSLARAARTVGTFFNTGEGGLPKELREFKDNMIVQVASGRFGVSADYLNAGSAVEIKIGQGAKPGIGGHLPGEKVTEPISETRMIPVGTDALSPAPHHDIYSIEDLRQLIYAIKEATRYEKPVGVKIAAVHNVAPIAAGAVRAGADYIVIDGIRGGTGAAPKITRDHVGIPIEFAVAVVDQRLREEGIRHMASIVVAGGIRNSADVIKAIALGADAVYIGTAALISLGCHLCQTCYLGKCNWGIATQDPKLTKRLNPEIGARRAANLLRAWAHEIKEILGGMGINAIESLRGNREVLRGVGLHEYELKLLGIKPAGEAW", "soluble on expression in E. coli": "not soluble"}
{"sequence": "MGSDKIHHHHHHMAKVEELTPQQLSETDLKPRGRVYPSPISWRDQFLYQLVLDRFSDDNENQRELFDHTNLAKFQVKDKAGWMAAGTKFVGGTLRGIKSKLDYLQRLGVTTLWINPPWQQRSELEAYHSDRIQEFLDIDPHFGTRQDLRDLIDAAHDRRMYVILDVIYNQNADNWFHRNDVIAALARVYQYWIALSDCDGLRIDSLKHVSPEDSRKFCTAIREYAESIDKDNFLLTGEITSGSMAGAYIDIIARNFSAVLDIAQTPNELAAFAKGLVHPKQFFDLYSENNLAGEYRQIGTYHVSILDDYEMSFRTNKQRFAAYSNVPHLYEQVAHAVGVQLTMPGIPAIYYGTEQAFDGNEGYHDYSIEGRKFAEDRYIKEAMFGGAFGAFQTADCHFFDIDHPTYLRIAAIARIRNSHDKIGKALRRGHHYLRETSFFNSPFSIPGQGELVAWSQTLFDTEVLMVLNTNGLENRGAEVTVDTYMHPQDSTMTFLYKSDWSDSYLRHPPRDQTVAVQHHNDRRATVRIDLPPSGMAILA", "soluble on expression in E. coli": "not soluble"}
{"sequence": "MGSDKIHHHHHHMAKVIKTKKGLALNLKGKPLPEMLAEPAQSPTYAVVPDDFEGVIPKVTARPGDKVRAGSALMHHKAYPEMKFTSPVSGEVIAVNRGAKRKVLSIEVKPDGLNEYESFPVGDPSALSAEQIKELLLSSGMWGFIKQRPYDIVATPDIAPRDIYITANFTAPLAPDFDFIVRGEERALQTAIDALAKLTTGKVYVGLKPGSSLGLHNAEIVEVHGPHPAGNVGVLINHTKPINRGETVWTLKATDLIVIGRFLLTGKADFTRMIAMTGSDAAAHGYVRIMPGCNVFASFPGRLTIKESHERVIDGNVLTGKKLCEKEPFLSARCDQITVIPEGDDVDELFGWAAPRLDQYSMSRAYFSWLQGKNKEYVLDARIKGGERAMIMSNEYDRVFPMDIYPEYLLKAIIAFDIDKMEDLGIYEVAPEDFATCEFVDTSKIELQRIVREGLDMLYKEMN", "soluble on expression in E. coli": "not soluble"}
{"sequence": "MGSDKIHHHHHHMALIEGFRVRNYRALRDITLGRLSAEQQGDPLTPFTVVIGKNGVGKSTLFDAFGFVADCLSKDVESACDDKQRGGFERMRSLGTEESIRFDIYYREAKGERPITYELAINLDSSGRPFVESEVLKQRRKGQKHGRPYPFLRLHHGVGKVWAGEEAVETSSGEEDRAQEDVELTDLRQLGIATLGTLKEHPRIKRFRDFLKGWHLSYFHPDSARSIPSAGAQRHLDVHGENIGNVVQYMEREHKERFKTILDRIAAKIPGVHSIRTTVTQDKRVLLQFNDGAFNDPFYAGQMSDGTLKIFAYLLLMEDPEPPPFICIEEPENGLYHRLLDSLASELRSHATGKKNAPQIFVTTHQPYFVDALSTKEVWILEKGKNGFSTICRASDIDLVRNLVEEGLPLGGLWYGDYLDTK", "soluble on expression in E. coli": "not soluble"}
{"sequence": "MGSDKIHHHHHHMALRSMDELRQQAQGALSLNIAFIGVVNGLFSTLHALGNADSAALAAATGMDTGYVLRWCDAAYAFGWLELTDNEQWRLSEDGDRMRPEAENSRVGVAVGAVLSAHMAERAAGLMRTGERPGEKVLAERETILPWFGLMLENNFRKTFEEKICPTVPIFAEVDARGGLAVDLGCGNGWYLRALAARCGHLHGLGLDGFAENIRQATEKAQSEGIADRLHFDEGDIHQFSLPEPADLIAMNRSLHHVWENRGEIFQRLHASLKPEGAIVIWEPAWPDDHRVLREPPLRGMAFQNLTEHVQGNHFLHPEEIATALSEAGLHPEIFPFGSDVVVVGRV", "soluble on expression in E. coli": "not soluble"}
{"sequence": "MGSDKIHHHHHHMANNYMKRKDRIILTAVEIIDQLGVQGLTIREIASRQEISEAAIYRHFANKSEILLGTIDYFSSYDALLFRTIESQNMKAWEGITFLLASYTEYYENYPAITAVTFTQEAFQLEPEARERMENVIDNRLRFIKQMVIKGQKEGEFTRDICSEGIVDIIFGTVQFIILRWRAKNYDFALKEHVLSTLSILIEAFSTVKLENRFAWGGVFNQEVSSSTFDSVLTRPGLFLEKGKDQVNEKSEG", "soluble on expression in E. coli": "not soluble"}
